T1: human Fcγ receptor IIB/C (human, UniProt P31994 46-217)
T1 sequence (looked up): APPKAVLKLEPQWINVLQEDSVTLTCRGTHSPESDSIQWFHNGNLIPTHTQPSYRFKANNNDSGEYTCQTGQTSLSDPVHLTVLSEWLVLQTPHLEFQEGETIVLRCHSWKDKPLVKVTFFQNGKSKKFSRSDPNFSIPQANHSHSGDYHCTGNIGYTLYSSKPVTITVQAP

T2: human Fcγ receptor IIA, R167 variant (human, UniProt P12318 36-218)
T2 construct: also called Type IIA R167
T2 sequence (looked up): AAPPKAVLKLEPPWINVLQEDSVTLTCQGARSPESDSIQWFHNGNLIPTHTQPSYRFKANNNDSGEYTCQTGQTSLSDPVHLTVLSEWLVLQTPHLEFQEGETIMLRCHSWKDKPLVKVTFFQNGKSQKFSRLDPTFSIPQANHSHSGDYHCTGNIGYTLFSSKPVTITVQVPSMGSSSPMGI

T3: human Fcγ receptor IIA, H167 variant (human, UniProt P12318 36-218)
T3 sequence (looked up): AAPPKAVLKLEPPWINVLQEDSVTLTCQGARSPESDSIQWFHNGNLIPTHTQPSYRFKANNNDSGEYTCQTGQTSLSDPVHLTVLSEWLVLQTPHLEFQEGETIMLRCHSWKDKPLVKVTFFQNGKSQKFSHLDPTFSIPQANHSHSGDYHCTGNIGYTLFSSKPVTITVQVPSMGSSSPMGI


Experiments:
[1] = target: T4, Human PSMA ECD-AFH (TSC033), recombinant dimeric PSMA ECD (human, UniProt Q04609 44-750); assay: SPR (Biacore T200), human PSMA dimer ECD 10X His (TSC033), 1:1 fit
T4 construct: SEC-purified dimer; also called HuPSMA-AFH; Avi-His-Human PSMA ECD
T4 sequence (Q04609 other isoform, or with tags, fused parts or gaps): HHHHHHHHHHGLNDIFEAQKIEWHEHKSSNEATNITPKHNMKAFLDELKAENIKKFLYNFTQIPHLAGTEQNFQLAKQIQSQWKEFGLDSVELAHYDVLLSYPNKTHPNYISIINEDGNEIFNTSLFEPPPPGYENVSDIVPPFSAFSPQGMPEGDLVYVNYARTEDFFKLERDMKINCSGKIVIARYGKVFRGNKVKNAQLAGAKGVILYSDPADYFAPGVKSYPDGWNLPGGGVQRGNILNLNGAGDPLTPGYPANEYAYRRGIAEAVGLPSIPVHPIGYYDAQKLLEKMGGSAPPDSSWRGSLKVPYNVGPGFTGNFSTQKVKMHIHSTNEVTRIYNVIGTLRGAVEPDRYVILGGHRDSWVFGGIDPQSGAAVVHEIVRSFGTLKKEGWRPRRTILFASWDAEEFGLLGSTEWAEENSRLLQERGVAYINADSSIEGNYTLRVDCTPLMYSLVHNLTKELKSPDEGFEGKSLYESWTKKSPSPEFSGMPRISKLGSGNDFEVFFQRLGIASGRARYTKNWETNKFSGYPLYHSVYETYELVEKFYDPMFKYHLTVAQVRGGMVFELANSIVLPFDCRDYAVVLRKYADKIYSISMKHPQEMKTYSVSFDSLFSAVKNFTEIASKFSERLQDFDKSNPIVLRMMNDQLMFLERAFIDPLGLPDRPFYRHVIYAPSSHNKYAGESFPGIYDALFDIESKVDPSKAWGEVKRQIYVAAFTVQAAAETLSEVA

human Fcγ receptor IIB/C = target: T1, human Fcγ receptor IIB/C; assay: SPR (Biacore T200), construct amine-coupled, Fcγ receptor at 4-6 µM as analyte
Experimental: (§1) The Fc region incorporated into anti-PSMA bispecific constructs contained mutations intended to reduce or abolish binding to common human and cynomolgus Fc gamma receptors. SPR experiments were conducted at 25° C. in HBS-EP+ with 0.2% BSA buffer on a Biacore T200 system to evaluate the impact of these mutations on binding. For these experiments, three flow cells of a CM5 sensor chip were immobilized with anti-PSMA bispecifics by standard amine coupling to a response level of ˜2000 RU. A blank immobilization was performed on flow cell #1 for purposes of background signal subtraction. Both human and cynomolgus monkey Fcγ receptors (purchased from R&D Systems) were diluted in HBS-EP+ with 0.2% BSA to 4-6 μM and then flowed as analytes at 30 μL/min for 120 seconds followed by a 240 second dissociation step. No regeneration step was required. Blank-subtracted sensorgrams were visually inspected for binding to each of the Fcγ receptor proteins. […] Attenuated binding to Fcγ receptors IIA (both polymorphic variants) and IIB/C was observed. PSMA01107 and PSMA01108 share the same Fc amino acid sequence and therefore equivalent Fcγ receptor binding behavior was expected.

[2] = target: T2, human Fcγ receptor IIA, R167 variant; assay: as above
Experimental: as §1

[3] = target: T3, human Fcγ receptor IIA, H167 variant; assay: as above
Experimental: as §1

Row | Kd [1] | binding result (human Fcγ receptor IIB/C) | binding result [2] | binding result [3] | Binder
1 | 2.6 nM |  |  |  | PSMA01107 Anti-PSMA scFv x Fc x linker x Anti CD3 scFv; Anti PSMA scFv x Fc (bispecific antibody, Heterodimer, bivalent for PSMA and monovalent for CD3 (VH-VL scFv at the C-terminus); also called PSMA1107) chain 1: QVQLVQSGAEVKKPGASVKVSCKASGYTFTDYYMHWVRQAPGQGLEWMGYFNPYNDYTRYAQKFQGRVTMTRDTSTSTVYMELSSLRSEDTAVYYCARSDGYYDAMDYWGQGTTVTVSSGGGGSGGGGSGGGGSGGGGSDIQMTQSPSSLSASVGDRVTITCRASKSISKYLAWYQQKPGKAPKLLIHSGSSLESGVPSRFSGSGSGTEFTLTISSLQPDDFATYYCQQHIEYPWTFGQGTKVEIKEPKSSDKTHTCPPCPAPPAAAPSVFLFPPKPKDTLMISRTPEVTCVVVDVSHEDPEVKFNWYVDGVEVHNAKTKPREEQYNSTYRVVSVLTVLHQDWLNGKEYKCAVSNKALPAPIEKTISKAKGQPREPQVYTLPPSRDELTKNQVSLWCLVKGFYPSDIAVEWESNGQPENNYKTTPPVLDSDGSFFLYSKLTVDKSRWQQGNVFSCSVMHEALHNHYTQKSLSLSPGGGGSPSQVQLVQSGAEVKKPGASVKVSCKASGYTFTRSTMHWVRQAPGQGLEWIGYINPSSAYTNYAQKFQGRVTLTADKSTSTAYMELSSLRSEDTAVYYCASPQVHYDYNGFPYWGQGTLVTVSSGGGGSGGGGSGGGGSGGGGSDIQMTQSPSSLSASVGDRVTITCRASSSVSYMNWYQQKPGKAPKRWIYDSSKLASGVPSRFSGSGSGTDFTLTISSLQPEDFATYYCQQWSRNPPTFGQGTKVEIKRS chain 2: QVQLVQSGAEVKKPGASVKVSCKASGYTFTDYYMHWVRQAPGQGLEWMGYFNPYNDYTRYAQKFQGRVTMTRDTSTSTVYMELSSLRSEDTAVYYCARSDGYYDAMDYWGQGTTVTVSSGGGGSGGGGSGGGGSGGGGSDIQMTQSPSSLSASVGDRVTITCRASKSISKYLAWYQQKPGKAPKLLIHSGSSLESGVPSRFSGSGSGTEFTLTISSLQPDDFATYYCQQHIEYPWTFGQGTKVEIKEPKSSDKTHTCPPCPAPPAAAPSVFLFPPKPKDTLMISRTPEVTCVVVDVSHEDPEVKFNWYVDGVEVHNAKTKPREEQYNSTYRVVSVLTVLHQDWLNGKEYKCAVSNKALPAPIEKTISKAKGQPREPQVYTLPPSRDELTKNQVSLSCAVKGFYPSDIAVEWESNGQPENNYKTTPPVLDSDGSFFLVSKLTVDKSRWQQGNVFSCSVMHEALHNHYTQKSLSLSPG
2 |  | binds | binds | binds | PSMA01108 Anti-PSMA scFv x Fc x linker x Anti CD3 scFv; Anti PSMA scFv x Fc (bispecific antibody, also called PSMA1108; PSAM01108) chain 1: QVQLVQSGAEVKKPGASVKVSCKASGYTFTDYYMHWVRQAPGQGLEWMGYFNPYNDYTRYAQKFQGRVTMTRDTSTSTVYMELSSLRSEDTAVYYCARSDGYYDAMDYWGQGTTVTVSSGGGGSGGGGSGGGGSGGGGSDIQMTQSPSSLSASVGDRVTITCRASKSISKYLAWYQQKPGKAPKLLIHSGSSLESGVPSRFSGSGSGTEFTLTISSLQPDDFATYYCQQHIEYPWTFGQGTKVEIKEPKSSDKTHTCPPCPAPPAAAPSVFLFPPKPKDTLMISRTPEVTCVVVDVSHEDPEVKFNWYVDGVEVHNAKTKPREEQYNSTYRVVSVLTVLHQDWLNGKEYKCAVSNKALPAPIEKTISKAKGQPREPQVYTLPPSRDELTKNQVSLWCLVKGFYPSDIAVEWESNGQPENNYKTTPPVLDSDGSFFLYSKLTVDKSRWQQGNVFSCSVMHEALHNHYTQKSLSLSPGGGGSPSDIQMTQSPSSLSASVGDRVTITCRASSSVSYMNWYQQKPGKAPKRWIYDSSKLASGVPSRFSGSGSGTDFTLTISSLQPEDFATYYCQQWSRNPPTFGQGTKVEIKGGGGSGGGGSGGGGSGGGGSQVQLVQSGAEVKKPGASVKVSCKASGYTFTRSTMHWVRQAPGQGLEWIGYINPSSAYTNYAQKFQGRVTLTADKSTSTAYMELSSLRSEDTAVYYCASPQVHYDYNGFPYWGQGTLVTVSS chain 2: QVQLVQSGAEVKKPGASVKVSCKASGYTFTDYYMHWVRQAPGQGLEWMGYFNPYNDYTRYAQKFQGRVTMTRDTSTSTVYMELSSLRSEDTAVYYCARSDGYYDAMDYWGQGTTVTVSSGGGGSGGGGSGGGGSGGGGSDIQMTQSPSSLSASVGDRVTITCRASKSISKYLAWYQQKPGKAPKLLIHSGSSLESGVPSRFSGSGSGTEFTLTISSLQPDDFATYYCQQHIEYPWTFGQGTKVEIKEPKSSDKTHTCPPCPAPPAAAPSVFLFPPKPKDTLMISRTPEVTCVVVDVSHEDPEVKFNWYVDGVEVHNAKTKPREEQYNSTYRVVSVLTVLHQDWLNGKEYKCAVSNKALPAPIEKTISKAKGQPREPQVYTLPPSRDELTKNQVSLSCAVKGFYPSDIAVEWESNGQPENNYKTTPPVLDSDGSFFLVSKLTVDKSRWQQGNVFSCSVMHEALHNHYTQKSLSLSPG
